From patent publication US20260085128A1 (BIOLEGEND, published 2026)

T1: human CD157 (human, UniProt Q10588 33-293)
T1 construct: Endogenous CD157 on human U-937 cells and on human blood monocytes and granulocytes; also called BST-1; bone marrow stromal cell antigen 1
T1 sequence: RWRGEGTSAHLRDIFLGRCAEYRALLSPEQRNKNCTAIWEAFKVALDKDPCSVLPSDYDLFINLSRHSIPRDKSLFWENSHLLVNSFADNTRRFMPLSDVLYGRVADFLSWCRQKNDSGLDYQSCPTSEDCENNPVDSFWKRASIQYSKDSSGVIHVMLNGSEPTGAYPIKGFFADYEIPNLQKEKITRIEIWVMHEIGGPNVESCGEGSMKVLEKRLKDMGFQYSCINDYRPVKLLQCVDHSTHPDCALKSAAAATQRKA


Columns and labels:
human CD157 [1] = biological target: T1, human CD157; experiment: flow cytometry, summary sentence of Example 3
human CD157 [2] = biological target: T1, human CD157; experiment: flow cytometry on U-937 cells, anti-rat IgG-PE secondary
Method: U-937 cells were grown in RPMI media supplemented with 10% FBS in T75 culture flask, to about 80% confluency. Various concentrations of exemplary generated anti-CD157 antibodies were added, including 2, 1, 0.5, 0.25, 0.125 and 0.06 μg, and allowed to incubate for 15 minutes. Cells were then washed twice with FACS wash buffer and stained with anti-rat IgG-PE secondary antibody for 15 minutes. Cells were washed with FACS buffer and analyzed on a BD LSRII flow cytometer.

binding result (human CD157 [1])	binding result (human CD157 [2])	Binder
binds		anti-CD157 monoclonal antibody AB3 (antibody, V domains shown, Hybridoma-derived monoclonal antibody; It was detected with an anti-rat IgG-PE secondary antibody; also called antibody 3; clone 3) VH: EVHLVESGGGLVQPGRSLKLSCAASGFTFSNYDMAWIRQAPAKGLEWVASISIRGGSTYYRDSVKGRFTVSRDNAKSTLYLQMDSLRSEDTATYYCVRGTDYYYDYFDYWGQGVMVTVSS VL: NIQMTQSPSLLSASVGDRVTLSCKAGRNINSYLAWYQQMLGEAPKLLIYNANSLQTGIPSRFSGSGSGTDYTLTISSLQPEDVATYFCQQYNSWTNTFGAGTKLELK
	binds	anti-CD157 monoclonal antibody AB1 (antibody, V domains shown, Hybridoma-derived monoclonal antibody; It was detected with an anti-rat IgG-PE secondary antibody; also called antibody 1; clone 1) VH: QVQLKESGPGLVQPSQTLSLTCTVSGFSLTSYHVSWVRQPPGKGLEWMGIIWTGGSTAYNSLLKSRLSISRDTSKSQVFLKMNSLQTEDTATYYCARSITPTFFDYWGQGVMVTVSS VL: QFVLTQPNSVSTNLGSTVKLSCKRSTGNFGNNYVNWYQQHEGRSPTTMIYRDDKRPDGVPDRFSGSIDRSSNSALLTISNVQTEDEADYFCQSYSSGIVFGGGTKLTVL
